Reference: article PMC7616283

Target: human CCR8 (HA-tagged) on stably transfected HEK293 cells (human), P51685
Assay: flow cytometry on cells
Conditions: remark: other sources report otherwise

Sequence of human CCR8 (HA-tagged) on stably transfected HEK293 cells (human), P51685 (P51685 whole entry): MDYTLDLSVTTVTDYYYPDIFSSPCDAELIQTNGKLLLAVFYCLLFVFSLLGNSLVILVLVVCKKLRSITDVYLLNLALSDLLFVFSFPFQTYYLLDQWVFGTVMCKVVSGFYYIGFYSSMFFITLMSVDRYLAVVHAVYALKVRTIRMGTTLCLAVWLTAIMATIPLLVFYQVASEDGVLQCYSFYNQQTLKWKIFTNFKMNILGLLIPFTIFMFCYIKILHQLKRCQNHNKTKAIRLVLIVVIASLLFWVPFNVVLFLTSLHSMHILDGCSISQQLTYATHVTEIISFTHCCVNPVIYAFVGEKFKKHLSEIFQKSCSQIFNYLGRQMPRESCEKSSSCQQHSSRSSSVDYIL

B1: unlabeled human recombinant CCL18, P55774 21-89 (ligand)
chain: AQVGTNKELCCLVYTSWQIPQKFIVDYSETSPQCPKPGVILLTKRGRQICADPNKKWVQKYISDLKLNA
Work on B1 yielded an IC50 of 4.1 nM.
